Test results from article PMC2168396 (The EMBO Journal, 2007).
Residue numbers refer to the chain shown, from its start. In names and notes the source's numbering stands. Ends that are not written are not given here.

B1: talin 2334–2541 (upstream helix deleted) (domain or fragment, mouse, UniProt P26039 2334-2541, looked up)
chain: EADESLNFEEQILEAAKSIAAATSALVKAASAAQRELVAQGKVGAIPANALDDGQWSQGLISAARMVAAATNNLCEAANAAVQGHASQEKLISSAKQVAASTAQLLVACKVKADQDSEAMKRLQAAGNAVKRASDNLVKAAQKAAAFEDQENETVVVKEKMVGGIAQIIAAQEEMLRKERELEEARKKLAQIRQQQYKFLPSELRDEH
B2: talin 2300–2541 Q2388D (domain or fragment, mouse, UniProt P26039 2300-2541, looked up)
chain: DPTVIAENELLGAAAAIEAAAKKLEQLKPRAKPKEADESLNFEEQILEAAKSIAAATSALVKAASAAQRELVAQGKVGAIPANALDDGDWSQGLISAARMVAAATNNLCEAANAAVQGHASQEKLISSAKQVAASTAQLLVACKVKADQDSEAMKRLQAAGNAVKRASDNLVKAAQKAAAFEDQENETVVVKEKMVGGIAQIIAAQEEMLRKERELEEARKKLAQIRQQQYKFLPSELRDEH
B3: talin 2300–2541 V2376D (domain or fragment, mouse, UniProt P26039 2300-2541, looked up)
chain: B2 chain with V77D, D89Q
B4: talin 2300–2541 R2513A (domain or fragment, mouse, UniProt P26039 2300-2541, looked up)
chain: B2 chain with D89Q, R214A
B5: talin 2300–2541 Q2388R (domain or fragment, mouse, UniProt P26039 2300-2541, looked up)
chain: B2 chain with D89R
B6: talin 2300–2541 R2510A (domain or fragment, mouse, UniProt P26039 2300-2541, looked up)
chain: B2 chain with D89Q, R211A
B7: talin 2300–2541 Q2437E (domain or fragment, mouse, UniProt P26039 2300-2541, looked up)
chain: B2 chain with D89Q, Q138E
B8: talin 2300–2541 V2444D (domain or fragment, mouse, UniProt P26039 2300-2541, looked up)
chain: B2 chain with D89Q, V145D

Tests used:
SEC + other: NMR = target: the molecule itself; assay: SEC + other: NMR
[1] = target: filamentous actin (F-actin) from rabbit skeletal muscle (rabbit, UniProt P68135 1-377); assay: co-sedimentation
crystal structure = target: the molecule itself; assay: crystal structure

Binder | stoichiometry N (SEC + other: NMR) | co-sedimentation pellet (% of WT) [1] | binding result (crystal structure)
B1 | 2 | 262 ± 18 % of WT | –
MVGGIAQIIAAQEEMLRKERELEEARKKLAQIRQQQYKFLPSELRDEH (domain or fragment, mouse, UniProt P26039 2494-2541, looked up, also: selenomethionine in derivative used for phasing) [talin 2494–2541 (dimerisation domain)] | – | – | binds
B2 | 2 | 59 ± 5 % of WT | –
B3 | 2 | 95 ± 5 % of WT | –
B4 | 2 | 66 ± 14 % of WT | –
B5 | 2 | 102 ± 9 % of WT | –
B6 | 2 | 77 ± 5 % of WT | –
B7 | 2 | 62 ± 13 % of WT | –
B8 | 2 | 54 ± 10 % of WT | –
